# Measurements from the nanobody polyreactivity screen of Harvey et al. (2022).
# Experiment: yeast display, Sf9 membrane polyspecificity reagent, FACS + sequencing; frameworks hold sequencing errors
# Outline: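 A nanobody's polyreactivity label depends on the gate it was sorted from. Yeast display cells were stained with 10% biotinylated, detergent-solubilized Sf9 membrane reagent for 1 hour at 4 °C, enriched on streptavidin microbeads and sorted by FACS. The low and high (top ~1%) gates were set on anti-HA fluorescence for expression and streptavidin fluorescence for reagent binding.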
row,Sequence,polyreactivity (PSR sort gate)
1,QVQLVESAGGLVQAGGSLRLICAASGRTTPIYALGWYRQAPGKERELVASITRGTRTNYADSVKGRFTISRDNAKTTVYLQMNSLKPEDTAVYYCAAVSYSYSLNPYDYWGQGTQVTVSS,low polyreactivity
2,QVQLVESGGGLVQAGGSLRLSCAASGSTLGGSVMGWSRQAPGKERELVASITYSGGSTRYADSVKGRFTISRDNAKNTVYLQMNSLKPEDTAVYYCAAGAQRTYYTYSFRRVGYDYDYWGQGTQVTVSS,low polyreactivity
3,QVQLVESGGGLVQAGGSLRLSCAASGSIFSTYAMGWYRQAPGKERELVAAISGSGGRTYYADSVKGRFTISRDNAKNTVYLQMNSLKPEDTAVYYCAADGGSVKTPGYYYWGQGTQVTVSS,high polyreactivity
4,QVQLVESGGGLVQAGGSLRLSCAASGRIFHYYAMGWYRQAPGKERELVADSSWSGGRTYYADSVKGRFTISRDNAKNTVYLQMNSLKPEDTAVYYCAAGHSYRPYYYYGEYDYWGQGTQVTVSS,high polyreactivity
5,QVQLVESGGGLVQAGGSLRLSCAASGSTFLSNAMGWYRQAPGKERELVAAISVSGARTYYADSVKGRFTISRDNAKNTVYLQMNSLKPEDTAVYYCNAGTSVRYTESSDYWGQATQVTVSS,high polyreactivity
6,QVQLVESGGGLVQAGGSLRLSCAASGFTLLTYVMGWYRQAPGKERELVAAITSSGGRTYYADSVKGRFTISRDNAKNTVYLQMNSLKPEDTAVYYCAAVGWGSSYRARYGYWGQGTQVTVSS,high polyreactivity
7,QVQLVESGGGLVQAGGSLRLSCAASGRTFLSYAMGWYRQAPGKDRELVAAIRRGSSTYYADSVKGRFTISRDNAKNTVYLQMNSLKPEDTAVYYCAARGRYRIGPGRYGKRYDYWGQGTQVTVSS,high polyreactivity
8,QVQLLESGGGLVQAGRSLRLSCAASGSIFRSYAMGWSRQAPGKERELVAAISRRGGSTYYADSVKGRFTISRDNAKNTVYLQMNSLKPEDTAVYYCAADRTGPYDYWGQGTQVTVSS,high polyreactivity
9,QVQLVESCGGLVQAGASLRLSCAASGSTFYDNVMGWYRQAPWKERELVAAITWRGGSTYADSVKGRFTISRDNAKNTVYLQMNSLKPEDTAVYYCNADDDYQQYLGDYWGQGTQVTVSS,low polyreactivity
10,QVHLVQSGGGIVQAGGSLRLSCAASGIIIRRYVMGWYRQAPGKERELVATISSSGGSTYYADSVKGRFTISRDNAKTTVYLQMNSLKPEDTAVYYCAVRYYGSGRYYYTYYSWGQGTQVTVSS,high polyreactivity
11,QVQLVESGGGLVQAGGSLRLSCAASGFIFASYTLGWYRQAPGKERELVAAISRAGSTYYADSVKGRFTISRDNAKNTVYLQMNSLKPEDTAVYYCNAVSWRTSRYDYWGQGTQVTVSS,high polyreactivity
12,QVQLVESGGGLVQAGGSLRLSCAASGFTFGWYAMGWYRQAPGKDWEFVAAISRSGGSTYYADSVKGRFTISRDNAKNTVYLQMNSLKPEDTAVYYCAAYIIGDTHAEYDYWGQGTQVTVSS,high polyreactivity
13,QVQLVESGGGLVQAGGSLRLSCAASGRTFFYNAMGWYRQAPGKERELVAAISYSGGSTYYADSVKGRFTISRDNAKNTVYLQMNSLKPEDTAVYYCAAYHYARYRTSAGNYYWGQGTQVTVSS,high polyreactivity
14,QVQLVDSGGGLVQAGGSLRLSCAASGRIFKWTAMGWYRPAPGKERELVAAIRWSSGRTYYADSVKGRFTISRDNAKNTVYLQMNSLKPEDTAVSYCAANNGYGMDYWGQGTQVTVSS,high polyreactivity
15,QVQLVESGGGLVQAGGSLRLSCAASGFIFAYYAMGWYRQAPGKERELVAAISSRGGTYYADSVKGRFTISRDNAKNTVYLQMNSLKPEDTAVYYCAAASYTWVSRGYEYWGQGTQVTVSS,high polyreactivity
16,QVQLVESGGGLVQAGGSLRLSCADSGFILTYYAMGWYRQAPGKERELVAAISWSGGSTYYADSVKGRFTISRDNAKNTVYLQMNSLKPEDTAVYYCAAEKRYSSYDYWGQGTQVTVSS,high polyreactivity
17,QVQLVESGGGLVQAGGSLRLSCAASGRTFYTYARGWYRQAPGKERELVAAITKRGGSTYYADSVKGRFTISRDYAKNTVYLQMNSLKPEDTAVYYCNQELATARGQSLYRTYSGYGYWGQGTQVTVSS,high polyreactivity
18,QVQLVGSGGALVQAGGSLRLSCAASGRTFSYYAMGWYRQAPGKERELVASIRSSRTSTYYADSVKGRFTISRDNAKNTVYLQMNSLKPEDTAVYSCAKRYFTWRSTYNYWGQGTKVTVSS,high polyreactivity
19,QVQLVESGGGLVQAGGSLRLSCAASGRTFPGNAMGWYRQAPGKERELVAAISRRGGTTYYADSVKGRFTITRDNAKNTVYLQMNSLKPEDTAVYYCAKSYRDYGISDFDYWGQGTQVTVSS,high polyreactivity
20,QVQLVESGGGLVQAGGSLRLSCAASGSTSDINAMGLYRQAPGKERELVAVITDSSNTDYADSVKGRFTISRDNAKNTVYLQMNSLKPEDTAVYYCAADRDEPDPYDYWGQGTQVTVSS,low polyreactivity
21,QVQLVESGGGLVQAGGSLRLSCAASGRIFWFYTMGWYRQAPGKERELVARITTSGGSTYYADSVKGRFTISRDNAKNTVYLQMNSLKPEDTAVYYCAARPRDYHSFSLDYYYWGQGTQVTVSS,high polyreactivity
22,QVQLVESGGGLVQAGGSLRLSCAASGSILESNVMGWYRQAPGKERELVASISSSGDSTYADSVKGRFTISRDNAKNTVYLQMNSLKPEDTAVYYCAADAPGADFDYWGQGTQVTVSS,low polyreactivity

row,Sequence,polyreactivity (PSR sort gate)
1,QVHLVESGGGLVQAGGSLRLSCAASGFTFLKNAMVWNRQAPWKERELVAAITSSGGRTYYADSVKGRFTISRDNAKNTVYLQMNSLKPEDTAVYYCNKGPLPGYDYWGQGTQVTVSS,high polyreactivity
2,QVQLVESGGGLVQAGGSLLLSCAASGRTILTYALGWNRQAPGKERDLVAAISKRGGSTYYADSVKGRFTISRDNAKNTVYLQRNSLKPEDTAVYYCAADNVNHYGYWGQGTQVTVSS,high polyreactivity
3,QVQLVESGGGLVQAGGSLRLSCAASGRTFSIYAMGWYRQAPGKERELVASITNSDGSTYYADSVKGRFTISRDNAKNTVYLQMNSLKPEDTAVYYCNVDSGQSWSLWTYVQYDDYWGQGTQVTVSS,low polyreactivity
4,QVQLEESVGGLVQAGGSLRLSCAASVFIFYKKNMGLYRQAPGKERELVAAITDGDHTNYADSVKGRFTISRDNAKNTVYLQMNSLKPEDTAVYYCAADYAWNYAFGYWGQGTQVTVSS,low polyreactivity
5,PVQLVESGGGLVQEGGSLRLICAASGRTFYGYAMGCYRPAPGKEREFVAAINSSGGTTYYADSVKGRCTISRDNAKNTVYRAMNSVKPEDTAFSYCAAVYSRIRRWPGYNAYDYWGHGTQVTVSS,high polyreactivity
6,QVQLVESGGGLVQAGGSLRLSCAASGSTFWVNAMGWYRQAPGKERELVAAITYSGGSTHYADSVKGRFTISRDNAKNTVYLQMNSLKPEDTAVYYCNAEHWADYDYWGQGTQVTVSS,low polyreactivity
7,QVQLVESGGGLVQAGGSLRLSCAASGRILVHNAMGWYRQAPGKERELVAAITWSGGSTYYADSVKGRFTISRDNAKNTFYLQMNSLKPEDTAVYYCAAEQWRYDGSFTGYGYWGQGTQVTVSS,low polyreactivity
8,QVQLVESGGGLVQAGGSLRLSCAASGFTFISNAMGWYRQAPGKERELVAAISSSGGRTFYADSVKGRFTISRDNAKNTDDLQMNSLKPEDTAVYYCNADRSLLYSRKIEYDYWGQGTQVTVSS,low polyreactivity
9,QVQLQESGGGLVQEGGSLRLSCSASGNISPPADMGWSRQAPGKERELVASIGTGGTTNYADSVKGRFTISRDNAKNTVYLQMNSLKPDDTAVYYCAAGRYEYNPYDYWGQGTQVTVSS,low polyreactivity
10,QVQLVESGGGLVQAGGSLRLSCAASGFTFRYYAMGWYRQAPGKERELVAAIRRSGGSTYYADSVKGRFTISRDNAKNTVYLQMNSLKPEDTAVYYCAAVGPTYWRGYPSGYDYWGQGTQVTVSS,high polyreactivity
11,QVQLVESGGGLVQAGGSLRLSCAASGSIFDWYAMGWYRQAPGKEGELVAAISSGDSTYYADSVKGRFTISRDNAKNTVYLQMNSLKPEYTAVYYCAAVTKLSGIRYNYWGQGTQVTVSS,low polyreactivity
12,QVQLVESGGGLVQAGGSLRLSCAASGLTFRWYAMGWYRQAPGKERELVAAISSSGRTNYADSVKGRFTISRDNAKNTVYLQMNSLKPEDTAVYYCAADSSWRTSDYWGQGTQVTVSS,low polyreactivity
13,QVQLVESGGGLVQAGGSLRLSCADSGITFKYNAMGWYRQAPGKERELVAGITWTGGTTYYADSVKGRFTISRDNAKNTVYLQMNSLNPEDTAVYYCATRNYAVVPSVRREGYYWGQGTQVTVSS,low polyreactivity
14,QVQLVESGGGLVQAGGSLRLTCAASGNTFTTNVMGWYRQAPGKERELVARISWSGTSTSYADSVKGRFTISRDNAKNTVYLQMNSLKPEDTAVYYCAVGGIVHIRSRAQQEYYYWGHGTQVTVSS,high polyreactivity
15,QVQLVESGGGLVQAGGSLRLSCAASGRTFFPYAMGWYRQAPGKEREFVAAITKTDDSTYYADSVKGRFTISRDTSKNTVYLQMNSLKPEDTAVYYCNAGDTQMRFYYGGQGTQVTVSS,low polyreactivity
16,QVQLVESGGGLVQAGGSLRLSCAASGRNFAKYAMGWYRQAPGKERELVAAINSSGGSTYYADSVKGRFTISRDNAKNTVYLQMNSLKPEDTAVYYCAALGIGSYRRYSGYDYWGQGTQVTVSS,low polyreactivity
17,QVQLVESGGGLVQAGGSLRLSCAASGITFSGNAMGWYRQAPGKARELVATISQSGGRTYYADSVNGRFTISRDNAKHTVYLQMNSLKPEDTAVYYCARRRMRYTDRGYYYWGQGTQVTVSS,high polyreactivity
18,QVQLVESGGGLVQAGGSLRLSCAASGSIFRYYDMGWYRQAPGKERELVAAISWSGGTTYYADSVKGRFTISRDNAKNSVYLQMNSLNPEDTAVYYCNRVRYPSFVYWGQGTQVTVSS,high polyreactivity
19,QVQLEESGGGLVQAGGSLRLTCAASGRILGYSAMGWYRQAPGKERELVAAISSGDSTNSADSVKGRFTISRDNAKITVYLQMNSLKPEDTAVYYCAAKGCIWNPYNYWGQGTQVTVSS,low polyreactivity
20,QVQLVESGGGLVQAGGSLRLSCAATGRTFTYYALGGYRQAPGKQRELVAAISTSGGSTYYADSVKGRFTISRDNAKNTVYLQMNSLKPEDTAVYYCAASPYLRFLYGGFGYWGLGTQVTVSS,high polyreactivity
21,QVQLVESGGGLVQAGGTLRLSCAASGFIFGPNAMGWYRQAPGKERELVAAISWIGSSTYYADSVKGRFTISRDNAKNTVYLEMNSLKPEDTAVYYCNADLWVPSYLWGDYWGQGTQVTVSS,low polyreactivity
